Test results published in article PMC9727157, “The transmembrane domains mediate oligomerization of the human ZIP4 transporter in vivo” (Scientific Reports, 2022).

B1: full-length human ZIP4 tagged with eGFP (hZIP4/eGFP) (natural protein, UniProt Q6P5W5 23-647, looked up)
chain: SPPAGLLSLLTSGQGALDQEALGGLLNTLADRVHCANGPCGKCLSVEDALGLGEPEGSGLPPGPVLEARYVARLSAAAVLYLSNPEGTCEDARAGLWASHADHLLALLESPKALTPGLSWLLQRMQARAAGQTPKMACVDIPQLLEEAVGAGAPGSAGGVLAALLDHVRSGSCFHALPSPQYFVDFVFQQHSSEVPMTLAELSALMQRLGVGREAHSDHSHRHRGASSRDPVPLISSSNSSSVWDTVCLSARDVMAAYGLSEQAGVTPEAWAQLSPALLQQQLSGACTSQSRPPVQDQLSQSERYLYGSLATLLICLCAVFGLLLLTCTGCRGVTHYILQTFLSLAVGAVTGDAVLHLTPKVLGLHTHSEEGLSPQPTWRLLAMLAGLYAFFLFENLFNLLLPRDPEDLEDGPCGHSSHSHGGHSHGVSLQLAPSELRQPKPPHEGSRADLVAEESPELLNPEPRRLSPELRLLPYMITLGDAVHNFADGLAVGAAFASSWKTGLATSLAVFCHELPHELGDFAALLHAGLSVRQALLLNLASALTAFAGLYVALAVGVSEESEAWILAVATGLFLYVALCDMLPAMLKVRDPRPWLLFLLHNVGLLGGWTVLLLLSLYEDDITF
notes: human ZIP4 zinc transporter, full-length gene, residues 1-647; also called full-length hZIP4/eGFP; full-hZIP4/eGFP; source: HEK293 cells (HEK293T, ATCC CRL-3216), transiently transfected with 50 ng pcDNA3.1 plasmid, measured in living cells; not shown: eGFP (monomeric, A206K), C-terminal, kept
B2: truncated human ZIP4 (without ECD) tagged with eGFP (truncated hZIP4/eGFP) (domain or fragment, UniProt Q6P5W5 328-647, looked up)
chain: LYGSLATLLICLCAVFGLLLLTCTGCRGVTHYILQTFLSLAVGAVTGDAVLHLTPKVLGLHTHSEEGLSPQPTWRLLAMLAGLYAFFLFENLFNLLLPRDPEDLEDGPCGHSSHSHGGHSHGVSLQLAPSELRQPKPPHEGSRADLVAEESPELLNPEPRRLSPELRLLPYMITLGDAVHNFADGLAVGAAFASSWKTGLATSLAVFCHELPHELGDFAALLHAGLSVRQALLLNLASALTAFAGLYVALAVGVSEESEAWILAVATGLFLYVALCDMLPAMLKVRDPRPWLLFLLHNVGLLGGWTVLLLLSLYEDDITF
notes: human ZIP4 zinc transporter without the N-terminal extracellular domain (residues 1-327 removed); the eight transmembrane domains, residues 328-647; also called eGFP-tagged truncated ZIP4; hZIP4 lacking the ECD; source: HEK293 cells (HEK293T, ATCC CRL-3216), transiently transfected with 50 ng pcDNA3.1 plasmid, measured in living cells; not shown: eGFP (monomeric, A206K), C-terminal, kept

Target: the molecule itself
Assay: fluorescence correlation spectroscopy (FCS) with molecular brightness analysis; living transfected HEK293 cells, upper plasma membrane centred in the confocal volume; 23 °C, HEPES-buffered MEM without phenol red; 100 s (10 x 10 s); brightness compared with CD-86/eGFP (monomer) and CD-86/eGFP/eGFP (tandem, dimer) controls

Protein	stoichiometry N
B1	2
B2	2
